Assay results taken from paper PMC7515738, “Identification and characterization of hippuristanol-resistant mutants reveals eIF4A1 dependencies within mRNA 5′ leader regions”.

What was measured:
Details in all cases: tags: His6, single strand
eIF4A1 wt = eIF4A1 wt (UniProt P60842 1-406); test: fluorescence polarization; no Hipp; FP: 1 uM recombinant protein, FAM-poly r(AG)8, vehicle (0.1% DMSO) or Hipp, 30 min; buffer, salt, pH and temperature not given in the material
eIF4A1 G361C = eIF4A1 G361C (UniProt P60842 1-406, G361C); test: fluorescence polarization; no Hipp; similar to wt; FP: 1 uM recombinant protein, FAM-poly r(AG)8, vehicle (0.1% DMSO) or Hipp, 30 min; buffer, salt, pH and temperature not given in the material
eIF4A1 G361C, sequence (P60842 whole entry G361C): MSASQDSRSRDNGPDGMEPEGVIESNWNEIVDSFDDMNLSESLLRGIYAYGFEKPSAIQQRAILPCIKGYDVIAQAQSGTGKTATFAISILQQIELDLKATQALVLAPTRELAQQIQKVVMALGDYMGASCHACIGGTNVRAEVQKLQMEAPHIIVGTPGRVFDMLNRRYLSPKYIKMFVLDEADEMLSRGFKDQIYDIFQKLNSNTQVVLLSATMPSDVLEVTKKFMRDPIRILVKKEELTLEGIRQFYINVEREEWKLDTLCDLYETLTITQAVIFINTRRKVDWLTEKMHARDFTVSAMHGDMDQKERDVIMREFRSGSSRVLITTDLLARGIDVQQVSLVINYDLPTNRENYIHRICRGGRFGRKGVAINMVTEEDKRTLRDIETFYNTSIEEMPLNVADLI

eIF4A1 G370S = eIF4A1 G370S (UniProt P60842 1-406, G370S); test: as above
eIF4A1 G370S, sequence (P60842 whole entry G370S): as the sequence (P60842 whole entry G361C) above, with C361G, G370S counted along it

Measured: binding result

eIF4A1 wt, sequence (P60842 whole entry): as the sequence (P60842 whole entry G361C) above, with C361G counted along it

B1: poly r(AG)8 (ssRNA)
RNA: AGAGAGAGAGAGAGAG
binds: all assays above
